Results: paper PMC12263829 (Nature Communications, 2025)

B1: EGFP-EWSR1::FLI1 (natural protein, human, UniProt Q01844 1-264, looked up)
chain: MASTDYSTYSQAAAQQGYSAYTAQPTQGYAQTTQAYGQQSYGTYGQPTDVSYTQAQTTATYGQTAYATSYGQPPTGYTTPTAPQAYSQPVQGYGTGAYDTTTATVTTTQASYAAQSAYGTQPAYPAYGQQPAATAPTRPQDGNKPTETSQPQSSTGGYNQPSLGYGQSNYSYPQVPGSYPMQPVTAPPSYPPTSYSSTQPTSYDQSSYSQQNTYGQPSSYGQQSSYGQQSSYGQQPPTSYPPQTGSYSQAPSQYSQQSSSYGQQPSYDSVRRGAWGNNMNSGLNKSPPLGGAQTISKNTEQRPQPDPYQILGPTSSRLANPGSGQIQLWQFLLELLSDSANASCITWEGTNGEFKMTDPDEVARRWGERKSKPNMNYDKLSRALRYYYDKNIMTKVHGKRYAYKFDFHGIAQALQPHPTESSMYKYPSDISYMPSYHAHQQKVNFVPPHPSSMPVTSSSFFGAASQYWTSPTGGIYPNPNVPRHPNTHVPSHLGSYY
B2: EGFP-∆63EWSR1::FLI1 (domain or fragment, human, UniProt Q01844 64-264, looked up)
chain: TAYATSYGQPPTGYTTPTAPQAYSQPVQGYGTGAYDTTTATVTTTQASYAAQSAYGTQPAYPAYGQQPAATAPTRPQDGNKPTETSQPQSSTGGYNQPSLGYGQSNYSYPQVPGSYPMQPVTAPPSYPPTSYSSTQPTSYDQSSYSQQNTYGQPSSYGQQSSYGQQSSYGQQPPTSYPPQTGSYSQAPSQYSQQSSSYGQQPSYDSVRRGAWGNNMNSGLNKSPPLGGAQTISKNTEQRPQPDPYQILGPTSSRLANPGSGQIQLWQFLLELLSDSANASCITWEGTNGEFKMTDPDEVARRWGERKSKPNMNYDKLSRALRYYYDKNIMTKVHGKRYAYKFDFHGIAQALQPHPTESSMYKYPSDISYMPSYHAHQQKVNFVPPHPSSMPVTSSSFFGAASQYWTSPTGGIYPNPNVPRHPNTHVPSHLGSYY

Target: the molecule itself
Experiment: Number and Brightness

Row | Protein | stoichiometry N
1 | B1 | 3 to 4 molecules
2 | B2 | 3 to 4 molecules
